Assay results: patent US8361793B2, “Monoclonal antibodies against gonadotropin-releasing hormone receptor” (Vancouver Biotech Ltd., priority 2009, dated 2013)

T1: GnRH receptor on OC-3-VGH cancer cells (Homo sapiens, UniProt P30968)
T1 construct: endogenous in cells; host or cells: OC-3-VGH ovarian cancer cells
T1 sequence (P30968 1-328): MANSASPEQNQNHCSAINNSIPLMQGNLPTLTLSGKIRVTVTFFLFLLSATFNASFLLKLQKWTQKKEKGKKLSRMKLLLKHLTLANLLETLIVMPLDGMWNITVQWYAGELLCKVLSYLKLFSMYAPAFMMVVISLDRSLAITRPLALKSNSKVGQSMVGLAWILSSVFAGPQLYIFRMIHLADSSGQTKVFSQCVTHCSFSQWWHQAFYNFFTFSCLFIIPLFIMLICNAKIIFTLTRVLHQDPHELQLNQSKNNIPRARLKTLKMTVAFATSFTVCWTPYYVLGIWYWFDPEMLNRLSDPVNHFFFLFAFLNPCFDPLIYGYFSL

T2: human GnRH receptor (Homo sapiens, UniProt P30968)
T2 construct: endogenous in cells; host or cells: OC-3-VGH ovarian cancer cells
T2 sequence (P30968 1-328): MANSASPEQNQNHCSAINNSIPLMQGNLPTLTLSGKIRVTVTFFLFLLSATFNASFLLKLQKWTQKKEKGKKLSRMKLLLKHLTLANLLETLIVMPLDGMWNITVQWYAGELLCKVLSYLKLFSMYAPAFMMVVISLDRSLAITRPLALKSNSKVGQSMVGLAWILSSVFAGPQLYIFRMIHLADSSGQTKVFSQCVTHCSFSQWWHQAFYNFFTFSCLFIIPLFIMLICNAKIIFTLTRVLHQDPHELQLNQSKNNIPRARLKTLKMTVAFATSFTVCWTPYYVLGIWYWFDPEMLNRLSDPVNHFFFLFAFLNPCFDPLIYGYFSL

T3: synthetic peptide corresponding to the N-terminal 1-29 amino acid residues of human GnRH receptor (Homo sapiens, UniProt P30968)
T3 construct: purchased Gemed Lab, South San Francisco, Calif. and Genescript, NJ (custom synthesis)
T3 sequence (P30968 1-29 limits assumed): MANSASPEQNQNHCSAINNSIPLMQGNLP


How the values were obtained:
[1] = tested on: OC-3-VGH ovarian cancer cells; assay: MTT assay, anti-proliferative effects; assay type: cell-based, human; details: 48 hrs; GnRH 0.1 μg/ml, Antide 0.1 and 0.2 μg/ml, GHR-106 10 and 20 μg/ml
Experimental: Anti-proliferative effects of GnRH and GHR-106 monoclonal antibody on the growth of cultured cancer cells were also studied by MTT assay. An MTT assay was performed on cancer cells on a 24-well plate, as described by Choi, J-H, et al., Endocrine-Related Cancer (2006) 13:641-651.
1×10^4 Cells were dispensed into each well and cultured for 48 hours. Following removal of cultured media, fresh medium containing GnRH (0.1 μg/ml) or GHR-106 (10 μg/ml) was added to each well for additional 48 hours incubation. After the culture medium was removed, 200 μl of MTT (3-(4,5-dimethylthiazol-2-yl)-2,5-diphenyltetrazoliumbromide) (2.5 mg/ml in PBS, Sigma) was added to each well. After 5 hours of incubation with MTT at 37° C. in a 5% CO2 incubator, the supernatant was removed, and 200 μl of dimethylsulfoxide (DMSO) was added to each well, and shaking at 150 rpm for 5 min. Absorbance at 560 nm was determined spectrophotometrically. The negative control containing cells without any antibody treatment served as the negative control.

[2] = tested on: ribosomal proteins (P0, P1, P2 and L37) mRNA in OC-3-VGH cancer cells; assay: Semi-quantitative RT-PCR of mRNA expression of ribosomal proteins; assay type: cell-based, human; details: 24 hours, GHR-106 10 μg/ml, GnRH 0.1 μg/ml, relative to GAPDH
From the text: Four ribosomal proteins (P0, P1, P2 and L37) were selected for semi-quantitative analysis of mRNA expression. Expression of mRNA of GAPDH gene was used as the internal control. Primers for amplification were as follows:
A housekeeping gene, glyceraldehyde-3-phosphate dehydrogenase (GAPDH) was amplified to check the functional integrity of cDNA and used as internal control by using 5′-[…]-3′ (sense) (SEQ ID NO:20) and 5′-[…]-3′ (antisense) (SEQ ID NO:21) as primers (805 bp) (11).
RNA extraction, cDNA preparation and PCR amplification were conducted as described above in Preparation A.
Percent changes in RT-PCR signals which represent levels of P0, P1, P2, and L37 ribosomal proteins are presented with respect to GAPDH (100%) at 0 and 24 hrs. Messenger RNA expression of these genes of cultured cells without GHR-106 treatment served as the internal negative control and those with GnRH treatment served as positive control.

[3] = molecular target: T1, GnRH receptor on OC-3-VGH cancer cells; assay: Competition with GHR-106 for binding to microwells coated with OC-3-VGH cancer cells; details: 2 μg/ml GHR-106; GnRH 0.1 to 10 μg/ml
Experimental: (§1) Microwells coated with synthetic peptide or cancer cells were used to estimate the affinity constant between GHR-106 and GnRH receptor. Following one hour incubation at 37° C. with GHR-106 in microwells, goat anti-mouse IgG labeled with alkaline phosphatase served as the second antibody for signal detection with p-nitrophenylphosphate.
The decrease in relative signal intensity of antibody binding to cancer cells with increasing GnRH concentrations ranging from 0.1 to 10 μg/ml is shown in FIG. 3A.

[4] = tested on: MDA-MB-435S; assay: TUNEL apoptosis assay, MDA-MB-435S; assay type: cell-based, human; details: 24-hour treatment
[5] = tested on: DU-145; assay: TUNEL apoptosis assay, DU-145; assay type: cell-based, human; details: 24-hour treatment
[6] = tested on: A549; assay: TUNEL apoptosis assay, A549; assay type: cell-based, human; details: 24-hour treatment
[7] = tested on: OC-3-VGH cancer cells; assay: ELISA, dose-dependent binding to microwells coated with cancer cells; parameters: species or system human; details: one hour incubation at 37° C.
Experimental: as §1

[8] = molecular target: T2, human GnRH receptor; assay: Western blot assay of OC-3-VGH ovarian cancer cell extract; assay type: binding; details: OC-3-VGH cancer cell extract
Experimental: Western blot assay was performed with GHR-106 using alkaline phosphatase-labeled goat anti-mouse IgG as the detecting probe.

[9] = molecular target: T3, synthetic peptide corresponding to the N-terminal 1-29 amino acid residues of human GnRH receptor; assay: ELISA, dose-dependent binding to microwells coated with synthetic peptide; details: one hour incubation at 37° C.
Experimental: as §1

| molecular weight of protein band recognized in Western blot [8] | dose-dependent binding to 1-29 synthetic peptide coated onto microwells [9] | Molecule | anti-proliferative effect (relative absorbance at 560 nm normalized with negative control) [1] | mRNA expression of four ribosomal proteins (P0, P1, P2 and L37) [2] | % Apoptosis (Negative Control*) ([4]; 20 μg/mL) | % Apoptosis (Negative Control*) ([5]; DU-145, 10 μg/mL) | % Apoptosis (Negative Control*) ([5]; DU-145, 20 μg/mL) | % Apoptosis (Negative Control*) ([6]; A549, 10 μg/mL) | % Apoptosis (Negative Control*) ([6]; A549, 20 μg/mL) | dose-dependent binding to OC-3-VGH cancer cells coated on microwells [7] | other results |
| --- | --- | --- | --- | --- | --- | --- | --- | --- | --- | --- | --- |
| – | – | Antide | induce apoptosis, although to a much lesser extent | – | – | – | – | – | – | – | – |
| – | – | Gonadotropin releasing hormone [GnRH I, reference compound] | significantly inhibit the growth of cultured cancer cells | down regulation of mRNA expression | – | – | – | – | – | – | – |
| – | – | MANSASPEQNQNHCSAINNSIPLMQGNLP (SEQ ID NO:7) (PEPTIDE (1)...(29) extracellular domain of human GnRH receptor; listed as Homo sapiens) [1-29 synthetic peptide, synthetic peptide corresponding to N-terminal residues 1-29 of human GnRH receptor] | – | – | – | – | – | – | – | – | inhibition of the binding of GHR-106 to cancer cells coated on microwells [3]: inhibit GHR-106 binding |
| – | – | RP215: antibody used as positive control in the apoptosis assay [reference compound] | – | – | 37 ± 8 (6 ± 1)^+ % | 32 ± 7 (12 ± 3)^+ % | 43 ± 4 (19 ± 15)^− % | 30 ± 9 (11 ± 5)^+ % | 36 ± 12 (17 ± 3)^+ % | – | – |
| approximately 60 KDa | dose-dependent binding | GHR-106: monoclonal antibody against synthetic peptide of positions 1-29 of the extracellular domain of human GnRH receptor; hybridoma ATCC PTA-10252 (antibody, V domains shown, Synthetically constructed monoclonal antibody GHR106) VL: MDSQAQVLILLLLWVSGTCGDIVMSQSPSSLAVSAGEKVTMSCKSSQSLLNSRTRKNYLAWYQQKPGQSPKLLIYWASTRESGVPDRFTGSGSGTDFTLTISSVQAEDLAVYYCKQSYNLYTFGGGTKLEIK VH: QVQLKESGPGLVAPSQSLSITCTVSGFSLSRYSVHWVRQPPGKGLEWLGMIWGGGSTDYNSALKSRLSISKDNSKSQVFLKMNSLQTDDTAMYYCARGNDGYYSFAYWGQGTLVTVSS | significantly inhibit the growth of cultured cancer cells | significant decrease in expression | 45 ± 11 (6 ± 1)^+ % | 32 ± 2 (12 ± 3)^+ % | 32 ± 5 (19 ± 15)^− % | 34 ± 10 (11 ± 5)^+ % | 46 ± 11 (17 ± 3)^+ % | dose-dependent binding | % Apoptosis (Negative Control*) ([4]; 10 μg/mL): 31 ± 4 (7 ± 2)^+ % |
| 60 KDa | dose-dependent binding | GHR-103: monoclonal antibody to human GnRH receptor; amino acid sequence determined to be the same as that of GHR-106 (antibody, V domains shown) VL: MDSQAQVLILLLLWVSGTCGDIVMSQSPSSLAVSAGEKVTMSCKSSQSLLNSRTRKNYLAWYQQKPGQSPKLLIYWASTRESGVPDRFTGSGSGTDFTLTISSVQAEDLAVYYCKQSYNLYTFGGGTKLEIK VH: QVQLKESGPGLVAPSQSLSITCTVSGFSLSRYSVHWVRQPPGKGLEWLGMIWGGGSTDYNSALKSRLSISKDNSKSQVFLKMNSLQTDDTAMYYCARGNDGYYSFAYWGQGTLVTVSS | – | – | – | – | – | – | – | dose-dependent binding | – |
